Data: patent US10822618B2, “Method of using a transgenic mouse with alpha-one antitrypsin (ATT) deficiency to screen compounds” (University of Massachusetts, priority 2016, dated 2020)

T1: neutrophil elastase (Homo sapiens, UniProt P08246)
T1 sequence (P08246 30-267): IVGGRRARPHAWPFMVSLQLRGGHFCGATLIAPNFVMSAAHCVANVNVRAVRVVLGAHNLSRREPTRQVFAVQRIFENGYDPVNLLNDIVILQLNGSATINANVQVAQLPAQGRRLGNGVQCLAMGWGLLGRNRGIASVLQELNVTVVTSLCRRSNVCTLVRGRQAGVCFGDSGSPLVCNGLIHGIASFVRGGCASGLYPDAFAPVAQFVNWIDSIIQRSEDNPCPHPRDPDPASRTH

B1: AAT 1-4: murine α-1-antitrypsin protein corresponding to one of the Serpina1 genes (A-E) (protein, UniProt Q00897 25-413, looked up)
Alpha-1-antitrypsin 1-4: EDVQETDTSQKDQSPASHEIATNLGDFALRLYRELVHQSNTSNIFFSPVSIATAFAMLSLGSKGDTHTQILEGLQFNLTQTSEADIHKSFQHLLQTLNRPDSELQLSTGNGLFVNNDLKLVEKFLEEAKNHYQAEVFSVNFAESEEAKKVINDFVEKGTQGKIVEAVKKLDQDTVFALANYILFKGKWKQPFDPENTEEAEFHVDESTTVKVPMMTLSGMLDVHHCSMLSSWVLLMDYAGNTTAVFLLPDDGKMQHLEQTLNKELISQFLLNRRRSDAQIHIPRLSISGNYNLKTLMSPLGITRIFNNGADLSGITEENAPLKLSKAVHKAVLTIDETGTEAAAATVLQVATYSMPPIVRFDHPFLFIIFEEHTQSPIFVGKVVDPTHK
B2: AAT 1-1: murine α-1-antitrypsin protein corresponding to one of the Serpina1 genes (A-E) (protein, UniProt P07758 25-413, looked up)
Alpha-1-antitrypsin 1-1: EDVQETDTSQKDQSPASHEIATNLGDFAISLYRELVHQSNTSNIFFSPVSIATAFAMLSLGSKGDTHTQILEGLQFNLTQTSEADIHKSFQHLLQTLNRPDSELQLSTGNGLFVNNDLKLVEKFLEEAKNHYQAEVFSVNFAESEEAKKVINDFVEKGTQGKIAEAVKKLDQDTVFALANYILFKGKWKKPFDPENTEEAEFHVDESTTVKVPMMTLSGMLHVHHCSTLSSWVLLMDYAGNATAVFLLPDDGKMQHLEQTLSKELISKFLLNRRRRLAQIHFPRLSISGEYNLKTLMSPLGITRIFNNGADLSGITEENAPLKLSQAVHKAVLTIDETGTEAAAVTVLQMVPMSMPPILRFDHPFLFIIFEEHTQSPIFLGKVVDPTHK
B3: AAT 1-3: murine α-1-antitrypsin protein corresponding to one of the Serpina1 genes (A-E) (protein, UniProt Q00896 25-412, looked up)
Alpha-1-antitrypsin 1-3: EDVQETDTSQKDQSPASHEIATNLGDFAISLYRELVHQSNTSNIFFSPVSIATAFAMLSLGSKGDTHTQILEGLQFNLTQTSEADIHKSFQHLLQTLNRPDSELQLSTGNGLFVNNDLKLVEKFLEEAKNHYQAEVFSVNFAESEEAKKVINDFVEKGTQGKIVEAVKKLDQDTVFALANYILFKGKWKKPFDPENTEEAEFHVDESTTVKVPMMTLSGMLDVHHCSTLSSWVLLMDYAGNATAVFLLPDDGKMQHLEQTLSKELISKFLLNRRRRLAQIHFPRLSISGEYNLKTLMSPLGITRIFNNGADLSGITEENAPLKLSQAVHKAVLTIDETGTEAAAVTVLLAVPYSMPPILRFDHPFLFIIFEEHTQSPLFVGKVVDPTH
B4: AAT 1-2: murine α-1-antitrypsin protein corresponding to one of the Serpina1 genes (A-E) (protein, UniProt P22599 25-413, looked up)
Alpha-1-antitrypsin 1-2: EDVQETDTSQKDQSPASHEIATNLGDFAISLYRELVHQSNTSNIFFSPVSIATAFAMLSLGSKGDTHTQILEGLQFNLTQTSEADIHKSFQHLLQTLNRPDSELQLSTGNGLFVNNDLKLVEKFLEEAKNHYQAEVFSVNFAESEEAKKVINDFVEKGTQGKIVEAVKELDQDTVFALANYILFKGKWKKPFDPENTEEAEFHVDKSTTVKVPMMMLSGMLDVHHCSILSSWVLLMDYAGNASAVFLLPEDGKMQHLEQTLNKELISKILLNRRRRLVQIHIPRLSISGDYNLKTLMSPLGITRIFNNGADLSGITEENAPLKLSKAVHKAVLTIDETGTEAAAATVFEAVPMSMPPILRFDHPFLFIIFEEHTQSPIFVGKVVDPTHK

test system: not listed separately; experiment: Respiratory phenotype in response to intratracheal PPE; type: in vivo, mice; settings: intratracheal dose of 0.33 IU; FIG. 7
From the text: FIG. 7. Respiratory phenotype in response to a low and high dose of PPE.

Molecule | respiratory phenotype
PPE: porcine pancreatic elastase | a stronger phenotype is induced

target: T1, neutrophil elastase; experiment: not given; settings: murine AAT protein, C57BL/6J; cited from earlier work

Molecule | inhibition of neutrophil elastase
B1 | do not
B2 | inhibit
B3 | do not
B4 | inhibit

target: pancreatic elastase (Sus scrofa, UniProt P00772); experiment: not given; settings: murine AAT protein, C57BL/6J; cited from earlier work
Sequence (P00772 27-266): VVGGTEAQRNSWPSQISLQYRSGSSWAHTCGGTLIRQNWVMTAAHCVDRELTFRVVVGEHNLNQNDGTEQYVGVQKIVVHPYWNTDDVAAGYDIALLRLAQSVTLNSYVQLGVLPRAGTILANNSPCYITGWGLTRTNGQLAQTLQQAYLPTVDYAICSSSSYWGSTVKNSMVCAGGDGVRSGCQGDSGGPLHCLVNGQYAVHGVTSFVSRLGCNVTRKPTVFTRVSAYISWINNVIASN

Molecule | inhibition of pancreatic elastase
B1 | do not
B2 | inhibit
B3 | do not
B4 | inhibit
